Source: the supplement of paper PMC9170038

Key:
Settings in all cases: FMN input: 0 or 200 uM; Eterna round: R93 (includes R88 designs)
MS2 coat protein [1] = assay: apparent KD of MS2 coat protein, switch OFF state (with FMN for OFF switches, without FMN for ON switches); designed switch direction (-1 OFF switch, 1 ON switch): 1; higher = weaker reporter binding
In short: (§1)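 Each design's apparent KD comes from the median of binding-curve fits to its normalised clusters. Those clusters carried RNA switches transcribed on-chip from Illumina sequencing clusters. SNAP-549-labelled MS2 coat protein was titrated onto them in twofold steps (0.7 or 1.5 nM to 3 µM; per step 0.8–1.5 h down to 10–20 min). Conditions were 100 mM Tris-HCl pH 7.5, 80 mM KCl, 4 mM MgCl2, without or with constant ligand.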

MS2 coat protein [2] = assay: apparent KD of MS2 coat protein, switch ON state; designed switch direction (-1 OFF switch, 1 ON switch): 1; higher = weaker reporter binding
In short: as §1

MS2 coat protein [3] = assay: apparent KD of MS2 coat protein, switch ON state; designed switch direction (-1 OFF switch, 1 ON switch): -1; higher = weaker reporter binding
In short: as §1

MS2 coat protein [4] = assay: apparent KD of MS2 coat protein, switch OFF state (with FMN for OFF switches, without FMN for ON switches); designed switch direction (-1 OFF switch, 1 ON switch): -1; higher = weaker reporter binding
In short: as §1

| Sequence | apparent KD of MS2 coat protein (MS2 coat protein [1]) [nM] | apparent KD of MS2 coat protein (MS2 coat protein [2]) [nM] | apparent KD of MS2 coat protein (MS2 coat protein [3]) [nM] | apparent KD of MS2 coat protein (MS2 coat protein [4]) [nM] |
| --- | --- | --- | --- | --- |
| AAAAAAAAAACUGAGGAUAUCAGGGAUGGUACAUGAGGAUCACCCAUGUUGGCGGGCGAAGAAACUGAGAAGGCAGAAAAAAAAAA [JR_SameState2_Sub4] | 79.6 | 40.4 |  |  |
| AAAAAAAAAGUCGAGGAUAUCCACAUGGCUACAUGAGGAUCACCCAUGUGAAGAAAAGCACAUGAGGAGAAGGCGACAAAAAAAAA [Tightrope] | 24.5 | 11.6 |  |  |
| AAAAAACAUGAGGAUCACCCAUGUAAAAAAAUGGGAGGAUAUCUGAAUUAAUUAAAUUAAGGAGAAGGCCUAAAAA [71%, Same state of confusion2, 4] | 425 | 26 |  |  |
| AAAAAACAUGAGGAUCACCCAUGUAAAAAUAUGGGAGGAUAUGCGAAAAGAAACAAAGAAGCAGAAGGCCUAAAAA [75%, Ex5 sub 1, 8] | 185 | 25.6 |  |  |
| AAAAAACAUGAGGAUCACCCAUGUAGAAAUAUGGGAGGAUAUACAAAGACGAAAGUCAAAGUAGAAGGCCUAAAAA [77%, Mat - Mod of Eli, 2] | 57.8 | 18.2 |  |  |
| AAAAAACAUGAGGAUCACCCAUGUCAAAAGACAUGAGGAUAUGUACAGACUUCGGUCUGUACAGAAGGCAUGUCAA [SS1 - 1019] | 31.7 | 21.1 |  |  |
| AAAAAACAUGAGGAUCACCCAUGUCUUCGGACAUGAGGAUAUGUACAGACUUCGGUCUGUACAGAAGGCAUAAAAA [SS1 - 1010] | 12.6 | 221 |  |  |
| AAAAAACAUGAGGAUCACCCAUGUGAAAAAUUCGCAGGAUAUCCCUUUUUUAAAUGGGAGGGAGAAGGGUGAAAAA [Nob's Hobby 16 - Jieux - Same State 1] | 112 | 34.8 |  |  |
| AAAAAACAUGAGGAUCACCCAUGUGACAACAUGGGAGGAUAUACAAAGACGAGAGUCGAAGUAGAAGGCCUAAAAA [Garnet 77] | 32.6 | 66.1 |  |  |
| AAAAAACAUGAGGAUCACCCAUGUGAGAAUAUGGAAGGAUAUACAAAGACGAAAGUCAAAGUAGAAGGUCUAAAAG [Mat - Same State 1 - Eli mod - D90] | 31.5 | 31.1 |  |  |
| AAAACACAUGAGGAUCACCCAUGUAAAAACAUGAGAGGAUAUGCAUGGAAAAAAAACUAUGCAGAAGGCUCAUGUG [SS1 - 4] | 32.2 | 21.2 |  |  |
| AAAACACAUGAGGAUCACCCAUGUAAAAACUUGGGAGGAUAUGCUUGGAAAACAUGCUAUGCAGAAGGCUCUAGUG [SS1 - 13] | 123 | 49.9 |  |  |
| AAAACACAUGAGGAUCACCCAUGUAGAAAUACGGGAGGAUAUGCAAAAACGAAAGACAAAGUAGAAGGCCUAAAAG [saturn 9] | 67 | 26.2 |  |  |
| AAAACACAUGAGGAUCACCCAUGUAGAAAUACGGGAGGAUAUGCUAAAACGAAAGACAAUGUAGAAGGCCUAAAAG [saturn 10] | 59.6 | 37.7 |  |  |
| AAAACACAUGAGGAUCACCCAUGUCAAAAAAACACAGGAUAUCCAAAAAAAAAAAAAAAAGGAGAAGGGUGAAAAA [high kcal] | 42 | 65 |  |  |
| GGAAAACAUGAGGAUCACCCAUGUAAGGAUAUGCUAAAAAAAAAAAAAAACCCACCAGGCAGAAGGUACUAAAG [Janelle Amethyst 18 Mod 2 - Jieux - Exclusion 1] |  |  | 20.4 | 26.8 |
| GGUUGAAAAGGAUAUACAUGAGGAUCACCCAUGUGAGAGAAAAAAGUGAGAAAGAAAAGUAGAAGGUUUUGACG [salish99-ex3-61] |  |  | 22.8 | 44 |
| GGUUGGCGAGGAUAUACAUGAGGAUCACCCAUGUGAGAGAAAAAAGUGAGAAACAAAAGUAGAAGGCGCUGACG [salish99-ex3-26] |  |  | 79.8 | 657 |
| GGUUGGCGAGGAUAUACAUGAGGAUCACCCAUGUGAGAGAAAAAAGUGAGAAAGCAAAGUAGAAGGCGCUGACG [salish99-ex3-27] |  |  | 51.4 | 321 |
| GGUUGGCGAGGAUAUACAUGAGGAUCACCCAUGUGAGAGAAAUAAGUGAGAAAGAAAAGUAGAAGGCGCUGACG [salish99-ex3-43] |  |  | 87.7 | 1700 |
| GGUUGGCGAGGAUAUACAUGAGGAUCACCCAUGUGAGAGUAAAAAGUGAGAAAGAAAAGUAGAAGGCGCUGACG [salish99-ex3-46] |  |  | 27.1 | 85.1 |
| GGUUGGCGAGGAUAUACAUGAGGAUCACCCAUGUGAGUGAAAAAAGUGAGAAAGAAAAGUAGAAGGCGCUGACG [salish99-ex3-47] |  |  | 161 | 489 |
| GUAAACCUAGGAUAUACAUGAGGAUCACCCAUGUAAAGUUUCGUAAAAAGAAAAUCGAGUAGAAGGAGGUAGAU [JR_Exc003_Sub1222] |  |  | 22.5 | 26.6 |
| GUGGAACAUGAGGAUCACCCAUGUGAGGAUAUAGGUUUUUGGGAAAAACUAGGAGAAACUAGAAGGCGCAAGAA [Exclusion 1.1] |  |  | 26.2 | 22 |
| UAAAAACAUGAGGAUCACCCAUGUCAGGAUAUGUGCUCAGUGAAAAACUGAGUAACAAGCAGAAGGGACAAUAA [JR_Exc001_Sub202] |  |  | 23.6 | 31.4 |
| UAAACCCUAGGAUAUACAUGAGGAUCACCCAUGUUUGUCGAAGAACGAACAGUCCUCAGUAGAAGGAGGACGAA [Geriza] |  |  | 27.4 | 24.3 |
| UAUACGUGAGGAUAUGCGAAUAACACGUUAGACAAAUAGACGCAGAAGGCACAUGAGGAUCACCCAUGUGAACC [JR_Exc004_Sub316] |  |  | 18.1 | 17 |
| UCCGGACAUGAGGAUCACCCAUGUGAGGAUAUAUAAAGUGGGACUGGAAACAGUCCCAAUAGAAGGCACAUGAA [Celaar] |  |  | 21.2 | 19.6 |
| UCCUGACAUGAGGAUCACCCAUGUCAGGAUAUAGUAUGAAAAAAAAAAAAAAAAAAUACUAGAAGGGACAAGGG [Design 13: Super Stable Short Helix 4] |  |  | 18.5 | 26.8 |
| UCUUGACAUGAGGAUCACCCAUGUCAGGAUAUAGUAGGACAAAUAAAUAAAAGUUCUACUAGAAGGGAUAUGGA [Design 18: G-U+] |  |  | 14.3 | 12.7 |
